Test results as given in patent US20190367619A1 (ARGENX, published 2019).

T1: human galectin-10-His (recombinant human galectin-10 with TEV-cleavable N-terminal His-tag) (human)
T1 construct: SEC-MALLS: dimer in solution; also called Gal10-His; humanGal10-His
T1 chain: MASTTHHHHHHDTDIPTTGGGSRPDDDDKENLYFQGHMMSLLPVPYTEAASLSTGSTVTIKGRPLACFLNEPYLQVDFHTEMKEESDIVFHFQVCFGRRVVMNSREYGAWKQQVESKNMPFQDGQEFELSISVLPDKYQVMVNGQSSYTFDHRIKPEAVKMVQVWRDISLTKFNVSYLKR

T2: TEV-cleaved wild-type recombinant human galectin-10 (soluble, in Fab complexes, or as recombinant galectin-10 … (human, UniProt Q05315 1-142))
T2 sequence: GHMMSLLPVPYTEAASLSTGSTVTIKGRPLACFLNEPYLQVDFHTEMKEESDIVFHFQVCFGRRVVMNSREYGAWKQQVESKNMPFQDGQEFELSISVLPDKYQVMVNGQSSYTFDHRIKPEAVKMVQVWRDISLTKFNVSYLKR

T3: recombinant human galectin-10, TEV-cleaved (human, UniProt Q05315 1-142)
T3 sequence: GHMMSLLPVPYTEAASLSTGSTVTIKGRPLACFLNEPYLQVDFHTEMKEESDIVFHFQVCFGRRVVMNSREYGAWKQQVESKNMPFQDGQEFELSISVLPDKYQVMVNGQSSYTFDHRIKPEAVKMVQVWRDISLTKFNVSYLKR

T4: human galectin-10-His (human)
T4 construct: The last M of the tag may be Met1 of galectin-10; also called humanGal10-His; hGal10
T4 chain: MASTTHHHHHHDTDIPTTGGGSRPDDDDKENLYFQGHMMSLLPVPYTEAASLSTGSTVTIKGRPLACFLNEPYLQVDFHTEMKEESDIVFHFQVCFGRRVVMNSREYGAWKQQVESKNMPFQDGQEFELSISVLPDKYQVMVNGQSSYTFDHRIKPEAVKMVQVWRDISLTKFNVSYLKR


Assays:
[1] = target: T1, human galectin-10-His (recombinant …); assay: SPR Biacore T3000, scFv-hFc captured by anti-human Fc, galectin-10-His as analyte
Description: In order to determine the binding properties (on-rate/off-rate) of the scFv-human Fc panel, their binding capacity to galectin-10 was analyzed on Biacore T3000. For this purpose, a capture approach was set up. A CM5 Chip was coated with polyclonal anti-human Fc at 8000 RU, then a fixed concentration of the scFv-human Fc panel (1.5 μg/mL), diluted in HBS-EP pH7.4, were captured to reach a binding signal around 150 RU. Finally, a serial dilution of galectin-10-His (serial dilution, 1 over 2 from 5 μg/mL, 6 points of dilution) diluted in HBS-EP pH7.4 was injected. Raw data were analyzed via BIA evaluation software with a blank subtraction (4-3). The kd/KD and Rmax of each scFv-human Fc for galectin-10-His was determined using the Fit Kinetics simultaneous ka/kd/Binding with mass transfer/Local Rmax on BIA evaluation software.

[2] = target: T2, TEV-cleaved wild-type recombinant human …; assay: cell-based or functional assay
[3] = target: T1, human galectin-10-His (recombinant …); assay: ELISA, scFv-hFc on coated galectin-10-His (0.2 ug/mL)
Description: In a similar setup to that used during the initial screening, the relative binding properties of the 12 scFv-human Fc clones were analyzed by ELISA. Briefly, a Maxisorp plate was coated with galectin-10-His at 0.2 μg/mL and blocked with casein, before being incubated with a serial dilution of the scFv-human Fc fusion molecules. After several washing steps, detection of the bound scFv-human Fc was carried out with an anti-human Fc-HRP antibody. Absorbance was measured at 450 nm (reference at 620 nm) with Tecan instrument. Finally, the raw data (OD values) were plotted on GraphPad Prism 7.01. The EC50 value of each compound was calculated with a non-linear regression (log(agonist) vs. response Variable slope (four parameters)).

[4] = target: T3, recombinant human galectin-10, …; assay: cell-based or functional assay
human galectin-10-His = target: T4, human galectin-10-His; assay: ELISA, galectin-10-His coated at 1 ug/mL, Fab
Description: The binding capacity of the lead anti-galectin-10 Fabs was tested by binding ELISA. Briefly, a Maxisorp plate was coated overnight with 1 μg/mL of human galectin-10-His. Then a serial dilution of each clone (from 4 μM, dilution 1/4, 12 points of dilutions) was incubated on coated galectin-10. After several washing steps, detection of the bound Fab was carried out with an anti-human IgG Fab specific-peroxidase. Absorbance was measured at 450 nm (reference at 620 nm) with Tecan instrument.

Binder | Kd [1] [nM] | koff [1] [s⁻¹] | 100% Solubilization of CLC (Conc uM) [2] [µM] | Bmax (OD values) [3] [OD] | EC50 [3] [nM] | 50% crystal dissolution (min), 50 uM [4] [min] | 90% crystal dissolution (min), 50 uM [4] [min] | Bmax (human galectin-10-His) [OD] | EC50 (human galectin-10-His) [nM]
4B10 scFv-human Fc (Fc fusion, about 100 kDa on SDS-PAGE; also called 4B10 ScFv-hFc; not shown: CH2-CH3 constant domains of human IgG1 (vector pUPEX50)) scFv: QLQLVESGGGLVQPGGSLRLSCAASGFTFSNYWMYWVRQAPGKGLEWVSAIDVGGGTTDYAGSVKGRFTISRDNTKSTVYLQMNTLKPEDTALYYCLRGGSYYGGMDYWGKGTLVTVSSGGGGSGGGGSGGGGSQSALTQPSAVSVSLGQTARITCQGAKLGRYYGIWYQQKPGQAPVQVIYGDSNRPSGIPERFSGSSSGGTATLTISGAQAEDEADYYCQSYESSTSPVFGGGTHLTVL | 1.94 | 0.0128 | 6.14 | 1.28 | 0.08 |  |  |  | 
4G05 scFv-human Fc (Fc fusion, about 100 kDa on SDS-PAGE; also called 4G05 ScFv-hFc; not shown: CH2-CH3 constant domains of human IgG1 (vector pUPEX50)) scFv: QLQVVESGGGLVQTGGSLTLSCTTSGFTFSRYWMIWVRQAPGKGLEWVSSIYNDGGNTYYADSVKGRFTISRDNSENTLYLQMNSLKSEDTAVYYCAKLKAAYYGMDYWGKGTLVTVSSGGGGSGGGGSGGGGSSSALTQPSAVSVSLGQTARITCQGANLGRYYGIWYQQKPGQAPVQVIYGDSNRPSGIPERFSGSSSGGTATLTISGAQAEDEADYYCQSYESSTSPVFGGGTHLTVL | 0.911 | 0.0437 | 4.36 | 3.03 | 0.09 |  |  |  | 
2B11 scFv-human Fc (Fc fusion, about 100 kDa on SDS-PAGE; also called 2B11 ScFv-hFc; not shown: CH2-CH3 constant domains of human IgG1 (vector pUPEX50)) scFv: QVQLQESGPGLVKPSQTLSLTCTVSGGSITTNYYYWSWIRQPPGKGLEWMGAIAYSGSTYYSPSLKSRTSISRDTSKNQFTLQLSSVTPEDTAVYYCARAPYGISREYDYWGQGTQVTVSSGGGGSGGGGSGGGGSHSAVTQPSAVSVSLGQTARITCQGGKFGRYYASWYQQKPGQAPVLVIYKDSERPSGIPERFSGSSSGDTATLSISGAQAEDEADYFCQSGRSSDNAVFGGGTHLTVL | 0.875 | 0.018 | 5.04 | 2.43 | 0.08 |  |  |  | 
2E11 scFv-human Fc (Fc fusion, about 100 kDa on SDS-PAGE; also called 2E11 ScFv-hFc; not shown: CH2-CH3 constant domains of human IgG1 (vector pUPEX50)) scFv: EVQLVESGGGLVQPGGSLRLSCAASGFTFSSYAMSWVRQAPGKGLEWVSPINSGSDSASYVDSVKGRFTISRDNAKNTLYLQMNSLKPEDTAVYYCAKARTSVVAGGMDYWGKGTLVTVSSGGGGSGGGGSGGGGSQSALTQPSAVSVSLGQTARITCQGGKFGSYYVSWYQQKPGQAPVMVIYKDNERPSGIPERFSGSSSGSTSTLTISGAQAEDEGTYYCQSGSSSDNIVFGGGTELTVF | 1.16 | 0.0111 | 4.36 | 1.43 | 0.14 |  |  |  | 

Second part, the binder after the results:

Kd [1] [nM] | koff [1] [s⁻¹] | 100% Solubilization of CLC (Conc uM) [2] [µM] | Bmax (OD values) [3] [OD] | EC50 [3] [nM] | 50% crystal dissolution (min), 50 uM [4] [min] | 90% crystal dissolution (min), 50 uM [4] [min] | Bmax (human galectin-10-His) [OD] | EC50 (human galectin-10-His) [nM] | Binder
 |  |  |  |  | 102 | > 120 | 0.74 | 61.2 | 10B02 Fab (Fab, V domains shown, Fab with human CH1 (including part of the hinge region) and human lambda constant domain; also called 10B02 hFab) VH: QVQLVESGGGLVQPGGSLRVSCAASGFTFSYHYMNWVRQAPGKGLEWVSGISAGGGRTYYADSVKGRFTISRDNAKNTLYLQMNSLNAEDTALYYCARVHGITNDYWGQGTQVTVSS VL: QSALTQPPSVSGSPGKTVTISCAGTSSDVGYGNYVSWYQQLPGMAPKLLIYEVNKRASGITDRFSGSKSGNTAFLTISGLQSEDEADYYCASYRNSNNWVFGGGTHLTVL
 |  |  |  |  | 59.7 | > 120 | 1.03 | 16.1 | 10D02 Fab (Fab, V domains shown, Fab with human CH1 (including part of the hinge region) and human lambda constant domain; also called 10D2; 10D02 hFab) VH: EVQLVESGGGLVQPGGSLRVSCAASGFTFSSYYMSWVRQAPGKGLEWVSGIVTGGGRTHYTDSVKGRFTITRDNAKNTLYLQMNSLRPEDTALYYCARVNGVVTNYDYWGQGTQVTVSS VL: QAVLTQPPSVSGSPGKTVTISCAGTSSDVGYGNYVSWYQQLPGMAPKLLIYDVNKRASGITDRFSGSKSGNTASLTISGLQSEDEADYFCASYRSPNNVVFGQGTHLTVL
